Results: US20250304693A1

How the values were obtained:
[1] = target: cynomolgus BTLA on cells (cynomolgus); test: FACS on Expi293.cynoBTLA cells, AF647 anti-human IgG Fc detection
[2] = target: human BTLA (B- and T-lymphocyte attenuator) on cells (human) (UniProt Q7Z6A9); test: FACS, primary human B cells, donor 149, AF647 anti-human IgG Fc secondary antibody
[3] = target: human BTLA (B- and T-lymphocyte attenuator) on cells (human) (UniProt Q7Z6A9); test: FACS on HEK293T.hBTLA cells, AF647 anti-human IgG Fc detection
[4] = target: cynomolgus BTLA on cells (cynomolgus); test: FACS on Expi293 cells overexpressing cynomolgus BTLA, AF647 anti-human IgG Fc detection
[5] = target: human BTLA (B- and T-lymphocyte attenuator) on cells (human) (UniProt Q7Z6A9); test: FACS competition on HEK293.BTLA cells; competitor DL650-conjugated soluble HVEM
[6] = target: human BTLA (B- and T-lymphocyte attenuator) on cells (human) (UniProt Q7Z6A9); test: FACS, primary human T cells, donor 1709, AF647 anti-human IgG Fc secondary antibody
[7] = target: human BTLA (B- and T-lymphocyte attenuator) on cells (human) (UniProt Q7Z6A9); test: FACS competition on HEK293T.hBTLA cells; competitor hrHVEM-His-DL650
[8] = target: human BTLA (B- and T-lymphocyte attenuator) on cells (human) (UniProt Q7Z6A9); test: cell-based or functional assay
[9] = target: human BTLA (B- and T-lymphocyte attenuator) on cells (human) (UniProt Q7Z6A9); test: FACS, primary human B cells, donor 1709, AF647 anti-human IgG Fc secondary antibody
[10] = target: human BTLA (B- and T-lymphocyte attenuator) on cells (human) (UniProt Q7Z6A9); test: FACS, primary human T cells, donor 149, AF647 anti-human IgG Fc secondary antibody
[11] = target: recombinant human BTLA (human) (UniProt Q7Z6A9); test: ELISA on recombinant human BTLA
[12] = target: human BTLA (B- and T-lymphocyte attenuator) on cells (human) (UniProt Q7Z6A9); test: FACS on HEK293 cells overexpressing human BTLA, AF647 anti-human IgG Fc detection

Chain of human BTLA (B- and T-lymphocyte attenuator) on cells (human) (Q7Z6A9 31-289): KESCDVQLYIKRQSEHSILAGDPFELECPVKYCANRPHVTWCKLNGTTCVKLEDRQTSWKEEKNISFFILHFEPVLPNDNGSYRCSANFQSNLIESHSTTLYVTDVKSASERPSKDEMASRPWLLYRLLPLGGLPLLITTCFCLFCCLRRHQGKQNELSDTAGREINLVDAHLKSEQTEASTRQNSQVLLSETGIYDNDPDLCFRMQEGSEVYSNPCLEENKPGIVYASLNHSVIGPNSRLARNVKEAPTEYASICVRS
Chain of cynomolgus BTLA on cells (cynomolgus) (chain, as listed by the source): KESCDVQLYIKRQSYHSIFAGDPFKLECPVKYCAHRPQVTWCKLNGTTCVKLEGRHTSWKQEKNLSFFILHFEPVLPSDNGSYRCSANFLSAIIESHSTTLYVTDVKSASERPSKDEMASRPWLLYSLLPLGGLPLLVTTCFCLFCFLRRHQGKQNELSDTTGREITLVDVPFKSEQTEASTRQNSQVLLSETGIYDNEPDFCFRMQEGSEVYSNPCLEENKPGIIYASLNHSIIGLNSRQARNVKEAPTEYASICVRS
Chain of recombinant human BTLA (human) (Q7Z6A9 31-157 limits assumed): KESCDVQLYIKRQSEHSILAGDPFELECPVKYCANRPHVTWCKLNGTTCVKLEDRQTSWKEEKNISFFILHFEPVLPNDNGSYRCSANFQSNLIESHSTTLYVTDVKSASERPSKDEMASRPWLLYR

- EC50 [1]: 5.25 nM
- EC50 [2]: 0.19 nM
- Emax(%) [2]: 73%
- EC50 [3]: 5.97 nM
- EC50 [4]: 0.561 nM
- IC50 [5]: 4.32 nM
- EC50 [6]: 1.1 nM
- Emax(%) [6]: 56%
- IC50 [7]: 1.47 nM
- BTLA-HVEM blockade reporter assay, EC50 [8]: 10.4 nM
- Reporter EC50 [8]: 13.1 nM
- EC50 [9]: 0.19 nM
- Emax(%) [9]: 82%
- EC50 [10]: 1.3 nM
- Emax(%) [10]: 97%
- EC50 [11]: 2.43 nM
- EC50 [12]: 0.804 nM
B1: JS004 (antibody, INN chains, looked up, V domains shown)
VH: QVQLVQSGAEVKKPGASVKLSCKASGYNFKHTYAHWVRQAPGQGLEWIGRIDPANGNTKYDPKFQGRATMTADTASNTAYLELSSLRSEDTAVYYCVADHYGSSLLDYWGQGTLVTVSS
VL: DVVMTQTPLSLSVTPGQPASISCKSSQSLLDSDGKTYLNWFQQRPGQSPRRLIYLVSKLDSGVPDRFSGSGSGTDFTLKISRVEAEDVGVYYCWQGTYFPYTFGQGTKLEIK
